Measured values from the supplement of paper PMC11811203.

B1: THAP1; numbered along this chain (parent)
chain: MVQSCSAYGCKNRYDKDKPVSFHKFPLTRPSLCKEWEAAVRRKNFKPTKYSSICSEHFTPDCFKRECNNKLLKENAVPTIFLCTEPHDKKEDLLEPQEQLPPPPLPPPVSQVDAAIGLLMPPLQTPVNLSVFCDHNYTVEDTMHQRKRIHQLEQQVEKLRKKLKTAQQRCRRQERQLEKLKEVVHFQKEKDDVSERGYVILPNDYFEIVEVPA

Variants of: B1
Assay: THAP1 transcriptional activity (GFP+/GFP- enrichment relative to wild-type constructs) (ratio to WT); higher = more THAP1 activity (PSMB5 reporter activation)
Conditions: with PSMB5 promoter-GFP reporter
Outline: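 A lentiviral site-saturation library covering residues 2–213 of human THAP1, with each position changed to all 20 amino acids, was transduced in duplicate at MOI ~0.3 into THAP1-knockout HEK-293T cells with mClover3 knocked in at endogenous PSMB5. Five days later, BFP+ cells were sorted into GFP-dim and GFP-bright bins and variants were counted by Illumina sequencing of genomic DNA amplicons. Activity is the bright/dim read fold change averaged over replicates and divided by the mean of wild-type synonymous constructs.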

Variant	THAP1 transcriptional activity
L72R	0.0764
L72M	0.106
D192I	0.817
D192H	0.799
D192M	1.27
D192T	1.12
A114N	1.35
A114C	0.678
A114Y	0.291
R42S	0.158
R42F	0.116
L71H	0.403
L71F	0.361
V77E	0.259
I80P	0.235
I80C	0.239
N203E	1.14
N203D	0.653
N203F	0.728
V193H	0.804
V193T	1.25
D204Y	0.63
D204W	0.525
L119K	1.25

Variant	THAP1 transcriptional activity
K161I	0.452
K161E	0.167
C5A	0.147
C5Y	0.118
C5Q	0.133
V139M	1.22
V139D	0.0939
V139T	0.34
Q97S	0.872
Q97R	0.945
F186I	1.08
K147A	0.537
E37M	0.792
E37L	1.16
I208W	0.755
C67K	0.472
C67H	0.198
C67Q	0.239
C67S	0.964
E95R	1.65
E95H	1.29
E95I	1.13
E95G	1.26
F25I	0.145

Variant	THAP1 transcriptional activity
S4W	0.171
S4G	0.254
T79K	0.278
E153C	0.315
L94G	1.56
L93K	0.898
P212H	2.31
P212D	0.943
P212V	1.99
T138M	0.238
Y8D	0.564
C54F	0.105
C54G	0.0692
K158Q	0.708
F132E	0.425
E182R	1.04
E182C	0.657
D113H	0.473
D113L	0.336
D113M	0.24
P60R	0.718
P60A	0.758
P60Q	1.17
E98Y	0.675

Variant	THAP1 transcriptional activity
V184Q	1.09
Y137H	0.111
I53H	0.1
I53F	0.0519
N69M	0.597
F58L	0.121
F58R	0.046
S110L	0.361
S110H	0.672
S110I	0.783
S110C	0.567
R41L	0.233
R41E	0.197
R41N	0.809
K24A	0.122
K24E	0.138
K24P	0.125
N128D	0.549
N128A	0.714
N128Q	0.507
N128Y	0.306
D191M	1.04
N12S	0.283
N12P	0.0735

Variant	THAP1 transcriptional activity
M120T	1.85
M120A	0.822
G9L	0.184
G9R	0.256
R148T	0.312
R148F	0.196
R148E	0.167
E157I	1.2
P107H	0.688
L177Y	0.528
N75R	0.829
V183N	1.17
V183L	0.753
E74C	0.522
E74H	0.512
P102D	2
P121M	0.288
Q173R	0.58
C10Q	0.125
R171P	0.186
R171W	0.258
D92V	0.743
D92F	0.641
D92R	1.57

Variant	THAP1 transcriptional activity
D92N	1.64
F81G	0.402
F81Q	0.206
V20S	0.0781
V20A	0.135
V20L	0.297
V20K	0.0912
K89I	1.1
K179Q	0.656
K179P	0.213
K179T	0.568
E174G	0.535
H144M	0.509
H144T	0.4
E207S	0.559
M143C	1.09
D61V	0.101
V131P	0.75
L82D	1.34
H87M	2.74
H87N	2.68
H87S	2.01
V109F	0.884
K188Q	0.954

Variant	THAP1 transcriptional activity
A38Q	0.891
A38G	0.417
K64F	0.102
K64E	0.188
C83Y	2.11
Y205P	0.805
Y205N	0.989
Y205R	0.621
Y205I	1.07
Y205D	0.754
Q111R	0.543
R172L	0.328
R172W	0.267
S130K	0.625
S130I	0.104
I200L	1.27
I200V	1.05
I200W	0.555
I200R	0.412
E140K	4.18
E140M	1.04
P104Y	0.704
P104K	1.14
L163Q	0.17

Variant	THAP1 transcriptional activity
E56D	1.26
E56I	0.6
E56K	0.472
Q99E	1.22
Q99N	2.66
Q99S	0.884
S55P	0.0679
S55N	0.147
S21E	0.0854
P26E	0.157
P26H	0.0688
P126V	0.434
L105Y	0.831
R29Q	0.36
V127A	0.82
V127F	0.642
V40R	0.1
V40C	0.665
V40E	0.113
V40A	0.221
V40P	0.128
E195W	0.467
E195A	0.865
E195N	0.808

Variant	THAP1 transcriptional activity
E195M	0.781
V2K	0.0614
V2Q	0.178
V2T	0.21
L100W	0.65
T59N	0.386
T59P	0.248
S52N	0.469
S52Y	0.46
S52H	0.251
H185R	1.31
H185V	0.579
Y50C	0.275
N136E	0.14
H23S	0.127
H23F	0.0843
Q145C	0.357
Q145I	0.448
Q145A	1.08
L32A	0.175
L32R	0.31
L32Q	0.378
L32H	0.17
E66L	0.436

Variant	THAP1 transcriptional activity
K162S	0.461
K162A	0.4
K18Q	0.511
F22H	0.12
V156P	0.0732
K90H	0.995
A76G	0.221
A76E	0.444
V209Q	1.67
V209P	0.814
V209F	0.531
T28W	0.188
T28K	1.42
F206E	1.11
F206C	1.5
Q155D	0.521
C33T	0.142
C33A	0.499
C33R	0.15
R175L	0.692
Q3W	0.0989
Q3V	0.563
Q3T	0.534
T125C	0.57

Variant	THAP1 transcriptional activity
A7C	0.163
A7E	0.154
N68M	0.141
N68D	0.0906
E210Y	1.39
E210W	0.686
E178I	0.832
K181D	0.296
K181G	0.53
L201K	0.887
V211S	1.03
V211C	0.988
Y14E	0.0718
Y14L	0.146
Y14R	0.36
Y14K	0.083
Y14C	0.157
L118Y	0.871
L118G	0.954
L180P	0.166
L180I	0.806
L27D	0.111
P202Y	1.04
P202E	1.05

Variant	THAP1 transcriptional activity
Q154D	0.962
L159T	0.209
L159Y	0.707
T84Y	1.82
T84M	1.23
L123A	0.859
L123M	0.859
P86N	0.592
P86M	2.06
K46I	0.465
P122H	0.355
P122A	0.914
S31I	0.728
S31E	1.31
S31K	1.13
I116V	1.05
K73Q	0.273
K73T	0.514
K73V	0.644
H150A	1
H150D	0.609
K49V	0.257
K49S	0.261
K49Y	0.0951

Variant	THAP1 transcriptional activity
D17C	0.541
D17F	0.706
D17R	1.11
P96E	0.84
P96W	0.452
K164L	0.298
S194W	1.09
S194M	0.847
S51W	0.122
S51E	0.185
V112H	0.743
V112W	0.234
V112F	0.388
F45H	0.161
H135L	0.0852
W36Q	0.18
Y198R	0.78
A39V	0.252
A39C	0.272
P19N	0.682
P19K	0.674
R13Y	0.0688
R13G	0.106
R13M	0.0992

Variant	THAP1 transcriptional activity
Q124A	0.569
Q124V	0.643
Q124Y	0.592
P108C	0.724
G117P	1.14
G117D	0.481
K16T	0.136
K16H	0.0905
K16V	0.255
K190P	0.901
R146I	0.358
R146S	1
T165R	0.898
K70C	0.313
P101S	1.96
T48E	0.0991
A115E	1.47
A115G	0.474
A115S	0.742
R65D	0.388
R65H	0.327
R65M	0.623
